Legend:
[1] = molecular target: T1, Aca cand27
T1 chain: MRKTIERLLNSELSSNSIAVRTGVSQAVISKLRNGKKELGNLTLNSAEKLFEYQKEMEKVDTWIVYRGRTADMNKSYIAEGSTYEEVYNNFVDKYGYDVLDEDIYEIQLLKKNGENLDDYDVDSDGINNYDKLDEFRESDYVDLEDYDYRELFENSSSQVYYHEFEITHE

[2] = molecular target: T2, Aca cand9
T2 chain: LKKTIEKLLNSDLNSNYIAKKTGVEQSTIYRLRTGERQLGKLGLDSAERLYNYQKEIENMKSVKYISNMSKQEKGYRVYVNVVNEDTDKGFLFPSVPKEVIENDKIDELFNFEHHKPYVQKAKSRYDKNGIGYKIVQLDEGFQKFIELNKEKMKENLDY

[3] = molecular target: T3, truncated Aca cand27
T3 chain: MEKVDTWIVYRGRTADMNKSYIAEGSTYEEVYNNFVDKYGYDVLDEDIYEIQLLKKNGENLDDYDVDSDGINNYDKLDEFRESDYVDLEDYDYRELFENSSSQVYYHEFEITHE

[4] = molecular target: T4, truncated Aca cand9
T4 chain: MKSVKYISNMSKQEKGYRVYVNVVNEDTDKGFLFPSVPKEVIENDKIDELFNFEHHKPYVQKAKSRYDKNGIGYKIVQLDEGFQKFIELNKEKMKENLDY

B1: Staphylococcus aureus Cas9 (protein)
chain: MKRNYILGLDIGITSVGYGIIDYETRDVIDAGVRLFKEANVENNEGRRSKRGARRLKRRRRHRIQRVKKLLFDYNLLTDHSELSGINPYEARVKGLSQKLSEEEFSAALLHLAKRRGVHNVNEVEEDTGNELSTKEQISRNSKALEEKYVAELQLERLKKDGEVRGSINRFKTSDYVKEAKQLLKVQKAYHQLDQSFIDTYIDLLETRRTYYEGPGEGSPFGWKDIKEWYEMLMGHCTYFPEELRSVKYAYNADLYNALNDLNNLVITRDENEKLEYYEKFQIIENVFKQKKKPTLKQIAKEILVNEEDIKGYRVTSTGKPEFTNLKVYHDIKDITARKEIIENAELLDQIAKILTIYQSSEDIQEELTNLNSELTQEEIEQISNLKGYTGTHNLSLKAINLILDELWHTNDNQIAIFNRLKLVPKKVDLSQQKEIPTTLVDDFILSPVVKRSFIQSIKVINAIIKKYGLPNDIIIELAREKNSKDAQKMINEMQKRNRQTNERIEEIIRTTGKENAKYLIEKIKLHDMQEGKCLYSLEAIPLEDLLNNPFNYEVDHIIPRSVSFDNSFNNKVLVKQEENSKKGNRTPFQYLSSSDSKISYETFKKHILNLAKGKGRISKTKKEYLLEERDINRFSVQKDFINRNLVDTRYATRGLMNLLRSYFRVNNLDVKVKSINGGFTSFLRRKWKFKKERNKGYKHHAEDALIIANADFIFKEWKKLDKAKKVMENQMFEEKQAESMPEIETEQEYKEIFITPHQIKHIKDFKDYKYSHRVDKKPNRELINDTLYSTRKDDKGNTLIVNNLNGLYDKDNDKLKKLINKSPEKLLMYHHDPQTYQKLKLIMEQYGDEKNPLYKYYEETGNYLTKYSKKDNGPVIKKIKYYGNKLNAHLDITDDYPNSRNKVVKLSLKPYRFDVYLDNGVYKFVTVKNLDVIKKENYYEVNSKCYEEAKKLKKISNQAEFIASFYNNDLIKINGELYRVIGVNNDLLNRIEVNMIDITYREYLENMNDKRPPRIIKTIASKTQSIKKYSTDILGNLYEVKSKKHPQIIKKG
For B1, the “SauCas9-mediated cleavage of target DNA in vitro (FIG. 1)” value [1] was “inhibited SauCas9-mediated cleavage of target DNA at Acr:SauCas9 molar ratios of 10:1 and 20:1”, the “SauCas9-mediated cleavage of target DNA in vitro (FIG. 1)” value [2] was “inhibited SauCas9-mediated cleavage of target DNA at Acr:SauCas9 molar ratios of 10:1 and 20:1” and the “SauCas9/guide RNA-mediated cleavage of target DNA in vitro (FIG. 2C)” value [3] was “inhibited SauCas9/guide RNA-mediated cleavage of target DNA at truncated Acr:SauCas9 molar ratios of 5:1, 10:1, and 20:1”. The “SauCas9/guide RNA-mediated cleavage of target DNA in vitro (FIG. 2B)” value [4] was “inhibited SauCas9/guide RNA-mediated cleavage of target DNA at truncated Acr:SauCas9 molar ratios of 5:1, 10:1, and 20:1”.

— patent publication US20210095004
